Laboratory results taken from article PMC11711316 (Nature Communications, 2025).

Assays:
[1] = target: T1, Rab3GAP2 (human, full length, C-terminal 3x-FLAG) (human, UniProt Q9H2M9 1-1393); assay: SEC
T1 sequence (looked up): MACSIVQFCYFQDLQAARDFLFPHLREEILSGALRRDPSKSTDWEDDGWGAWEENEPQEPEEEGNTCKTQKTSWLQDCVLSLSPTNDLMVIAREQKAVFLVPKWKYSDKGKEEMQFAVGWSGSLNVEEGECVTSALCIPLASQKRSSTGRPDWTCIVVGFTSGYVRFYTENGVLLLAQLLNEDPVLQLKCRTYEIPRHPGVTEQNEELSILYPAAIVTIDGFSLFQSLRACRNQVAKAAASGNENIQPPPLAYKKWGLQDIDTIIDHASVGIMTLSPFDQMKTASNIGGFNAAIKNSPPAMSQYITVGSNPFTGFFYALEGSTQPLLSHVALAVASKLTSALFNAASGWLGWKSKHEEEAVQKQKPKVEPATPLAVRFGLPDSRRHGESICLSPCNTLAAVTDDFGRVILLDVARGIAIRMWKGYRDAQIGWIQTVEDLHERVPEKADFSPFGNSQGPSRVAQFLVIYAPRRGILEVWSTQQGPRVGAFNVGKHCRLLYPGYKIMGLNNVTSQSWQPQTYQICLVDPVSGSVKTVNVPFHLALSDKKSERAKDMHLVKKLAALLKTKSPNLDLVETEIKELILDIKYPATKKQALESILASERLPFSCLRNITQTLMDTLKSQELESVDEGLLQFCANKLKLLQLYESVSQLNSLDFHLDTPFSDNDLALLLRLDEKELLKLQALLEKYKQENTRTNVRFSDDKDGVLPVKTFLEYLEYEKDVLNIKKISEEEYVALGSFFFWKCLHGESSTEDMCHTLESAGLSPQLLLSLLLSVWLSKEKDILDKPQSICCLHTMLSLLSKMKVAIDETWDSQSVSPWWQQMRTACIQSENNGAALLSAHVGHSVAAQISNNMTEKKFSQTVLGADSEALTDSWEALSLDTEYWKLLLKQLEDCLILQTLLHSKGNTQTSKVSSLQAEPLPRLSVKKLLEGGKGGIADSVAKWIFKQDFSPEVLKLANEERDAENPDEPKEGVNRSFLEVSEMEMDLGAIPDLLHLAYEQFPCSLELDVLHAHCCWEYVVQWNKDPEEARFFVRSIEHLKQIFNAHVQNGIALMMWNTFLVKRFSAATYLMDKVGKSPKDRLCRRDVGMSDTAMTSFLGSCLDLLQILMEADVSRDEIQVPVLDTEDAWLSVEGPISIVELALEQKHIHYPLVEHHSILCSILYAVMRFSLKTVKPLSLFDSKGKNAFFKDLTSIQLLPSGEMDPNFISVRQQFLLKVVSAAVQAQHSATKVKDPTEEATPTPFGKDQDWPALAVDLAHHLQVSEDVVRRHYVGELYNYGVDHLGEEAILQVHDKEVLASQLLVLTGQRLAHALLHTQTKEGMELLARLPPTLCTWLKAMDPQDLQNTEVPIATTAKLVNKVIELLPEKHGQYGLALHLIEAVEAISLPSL

[2] = target: T2, Rab3GAP2N (N-terminal domain of Rab3GAP2, 1-544) (human, UniProt Q9H2M9 1-544); assay: SEC
T2 sequence (looked up): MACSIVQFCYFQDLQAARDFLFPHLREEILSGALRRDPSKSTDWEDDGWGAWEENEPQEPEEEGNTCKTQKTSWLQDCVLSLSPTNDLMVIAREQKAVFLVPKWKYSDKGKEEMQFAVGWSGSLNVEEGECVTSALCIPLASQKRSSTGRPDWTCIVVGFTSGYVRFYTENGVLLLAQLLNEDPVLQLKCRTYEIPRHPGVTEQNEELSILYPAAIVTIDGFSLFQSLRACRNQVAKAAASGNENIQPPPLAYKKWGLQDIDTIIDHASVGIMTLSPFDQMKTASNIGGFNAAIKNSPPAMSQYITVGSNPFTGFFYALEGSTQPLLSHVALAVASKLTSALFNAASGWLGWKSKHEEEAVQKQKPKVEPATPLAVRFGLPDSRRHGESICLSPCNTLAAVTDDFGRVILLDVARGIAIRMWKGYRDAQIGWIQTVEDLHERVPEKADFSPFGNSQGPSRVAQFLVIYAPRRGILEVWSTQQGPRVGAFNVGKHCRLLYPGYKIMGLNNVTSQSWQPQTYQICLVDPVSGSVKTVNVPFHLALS

B1: Rab3GAP1 (human, full length, N-terminal TSP tag) (natural protein, UniProt Q15042 1-981, looked up)
chain: MAADSEPESEVFEITDFTTASEWERFISKVEEVLNDWKLIGNSLGKPLEKGIFTSGTWEEKSDEISFADFKFSVTHHYLVQESTDKEGKDELLEDVVPQSMQDLLGMNNDFPPRAHCLVRWYGLREFVVIAPAAHSDAVLSESKCNLLLSSVSIALGNTGCQVPLFVQIHHKWRRMYVGECQGPGVRTDFEMVHLRKVPNQYTHLSGLLDIFKSKIGCPLTPLPPVSIAIRFTYVLQDWQQYFWPQQPPDIDALVGGEVGGLEFGKLPFGACEDPISELHLATTWPHLTEGIIVDNDVYSDLDPIQAPHWSVRVRKAENPQCLLGDFVTEFFKICRRKESTDEILGRSAFEEEGKETADITHALSKLTEPASVPIHKLSVSNMVHTAKKKIRKHRGVEESPLNNDVLNTILLFLFPDAVSEKPLDGTTSTDNNNPPSESEDYNLYNQFKSAPSDSLTYKLALCLCMINFYHGGLKGVAHLWQEFVLEMRFRWENNFLIPGLASGPPDLRCCLLHQKLQMLNCCIERKKARDEGKKTSASDVTNIYPGDAGKAGDQLVPDNLKETDKEKGEVGKSWDSWSDSEEEFFECLSDTEELKGNGQESGKKGGPKEMANLRPEGRLYQHGKLTLLHNGEPLYIPVTQEPAPMTEDLLEEQSEVLAKLGTSAEGAHLRARMQSACLLSDMESFKAANPGCSLEDFVRWYSPRDYIEEEVIDEKGNVVLKGELSARMKIPSNMWVEAWETAKPIPARRQRRLFDDTREAEKVLHYLAIQKPADLARHLLPCVIHAAVLKVKEEESLENISSVKKIIKQIISHSSKVLHFPNPEDKKLEEIIHQITNVEALIARARSLKAKFGTEKCEQEEEKEDLERFVSCLLEQPEVLVTGAGRGHAGRIIHKLFVNAQRAAAMTPPEEELKRMGSPEERRQNSVSDFPPPAGREFILRTTVPRPAPYSKALPQRMYSVLTKEDFRLAGAFSSDTSFF
stoichiometry N [1]: 1
stoichiometry N [2]: 1
